# From US20030049796A1
# Biological target: Recombinant active caspase-9 (catalytic domain) (mammalian) (UniProt P55211)
# Test: cell-based or functional assay
# Sequence of UniProt P55211 (P55211 139-416 limits assumed): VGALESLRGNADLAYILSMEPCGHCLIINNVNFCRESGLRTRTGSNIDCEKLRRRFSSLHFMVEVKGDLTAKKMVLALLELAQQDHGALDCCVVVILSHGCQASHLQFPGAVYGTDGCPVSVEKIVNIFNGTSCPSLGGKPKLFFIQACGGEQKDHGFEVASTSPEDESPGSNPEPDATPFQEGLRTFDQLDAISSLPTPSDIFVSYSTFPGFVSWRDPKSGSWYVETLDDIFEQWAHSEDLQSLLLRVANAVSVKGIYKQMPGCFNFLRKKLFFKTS
substance,measurement,value
"GST-BmIAP (recombinant purified Bombyx mori inhibitor of apoptosis protein, glutathione S-transferase fusion)","caspase-9 activity: AFC release from Ac-LEHD-AFC (100 uM); 0.2 uM caspase-9, 0.2-1.6 uM BmIAP, 37 C (fold molar excess)",8
